Experiment [1] has as its target Jurkat-hTIGIT-NFAT-CD226细胞上过表达的人TIGIT (human). In words: cell-based or functional assay.
Experiment [2] has as its target 表达于CHOK1细胞表面的人TIGIT (CHOK1/人TIGIT细胞, 吉满生物 GM-C01116) (human) (UniProt Q495A1). In words: flow cytometry competition, inhibition of Biotinylated-CD155 (0.6μg/ml) binding to CHOK1/hTIGIT cells. On the technique in general: In flow cytometry, cells or beads pass a laser one at a time.
Experiment [3] has the same target. In words: flow cytometry on CHOK1/hTIGIT cells.
The target is the same in experiment [4]. In words: flow cytometry competition, inhibition of Biotinylated-CD155 (0.6μg/ml) binding to CHOK1/human TIGIT cells.

Chain of UniProt Q495A1 (Q495A1 22-244, one chain of several): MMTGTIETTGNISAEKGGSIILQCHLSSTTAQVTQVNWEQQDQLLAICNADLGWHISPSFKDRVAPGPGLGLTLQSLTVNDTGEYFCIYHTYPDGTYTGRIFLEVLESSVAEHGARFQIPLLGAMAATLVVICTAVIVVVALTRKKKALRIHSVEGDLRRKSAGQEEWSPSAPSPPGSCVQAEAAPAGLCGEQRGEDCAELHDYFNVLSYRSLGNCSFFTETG

In the case of IgG对照 (antibody), in experiment [1], the Max RLU is 7110 RLU and the 最大RLU is 6320 RLU. The substance also displayed a 最大抑制 in experiment [2] of 6.36%. In experiment [3], this substance registered a 最大MFI of 229 MFI. The same substance gave a 最大抑制 in experiment [4] of 3.03%.

The values are drawn from CN114907476A.
